Data: patent US20260232769A1 (WUXI BIOLOGICS IRELAND, published 2026)
Numbering of substitutions follows the chain as printed. Like-named read-outs stand apart in the source and are kept apart here.

T1: IL-2Rβ/γc complex (intermediate affinity receptor) on primary human CD8+ T cells (human, UniProt P14784 27-551; P31785 23-369)
T1 sequence (looked up) 1: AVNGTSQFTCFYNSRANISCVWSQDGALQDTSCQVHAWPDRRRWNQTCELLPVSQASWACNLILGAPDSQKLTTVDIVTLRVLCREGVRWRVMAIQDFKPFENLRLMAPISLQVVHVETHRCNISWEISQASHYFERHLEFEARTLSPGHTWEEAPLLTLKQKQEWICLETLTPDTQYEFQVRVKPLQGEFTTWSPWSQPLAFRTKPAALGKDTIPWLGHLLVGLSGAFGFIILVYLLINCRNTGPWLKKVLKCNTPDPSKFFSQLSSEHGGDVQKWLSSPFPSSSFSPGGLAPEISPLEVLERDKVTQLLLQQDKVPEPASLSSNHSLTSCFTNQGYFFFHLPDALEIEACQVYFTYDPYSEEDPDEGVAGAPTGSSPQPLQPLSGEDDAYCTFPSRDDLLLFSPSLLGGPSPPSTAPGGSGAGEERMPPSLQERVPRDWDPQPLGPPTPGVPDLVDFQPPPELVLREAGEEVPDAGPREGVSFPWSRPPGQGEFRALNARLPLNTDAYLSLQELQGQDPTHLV
T1 sequence (looked up) 2: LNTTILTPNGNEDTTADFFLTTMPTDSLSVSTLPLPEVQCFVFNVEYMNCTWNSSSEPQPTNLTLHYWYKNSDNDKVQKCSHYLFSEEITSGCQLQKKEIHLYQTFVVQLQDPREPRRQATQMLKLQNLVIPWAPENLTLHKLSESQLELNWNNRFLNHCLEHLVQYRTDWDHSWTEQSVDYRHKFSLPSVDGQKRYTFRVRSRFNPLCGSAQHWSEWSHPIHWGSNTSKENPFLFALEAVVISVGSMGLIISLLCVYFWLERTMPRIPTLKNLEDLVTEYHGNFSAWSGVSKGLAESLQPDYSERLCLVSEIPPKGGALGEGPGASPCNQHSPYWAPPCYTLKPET

T2: IL-2Rα/β/γc complex (high affinity receptor) on human activated CD8+ T cells (human, UniProt P01589 22-272; P14784 27-551; P31785 23-369)
T2 sequence (looked up) 1: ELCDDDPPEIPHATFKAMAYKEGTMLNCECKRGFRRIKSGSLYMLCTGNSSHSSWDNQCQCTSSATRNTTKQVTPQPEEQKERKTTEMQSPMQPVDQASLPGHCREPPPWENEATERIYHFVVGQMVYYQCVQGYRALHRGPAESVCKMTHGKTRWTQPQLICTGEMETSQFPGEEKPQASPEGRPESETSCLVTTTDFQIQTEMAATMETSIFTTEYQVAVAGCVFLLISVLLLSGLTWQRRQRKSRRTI
T2 sequence (looked up) 2: T1 sequence (looked up) 1
T2 sequence (looked up) 3: T1 sequence (looked up) 2

B1: W3XX115-T2U0.E44-44.uIgG4V322 (Fc fusion)
chain: APTSSSTKKTQLQLEHLLLDLQMILNGINNYKNPKLTRMLTFKFYMPKKATGLKHLQCLEEELKPLEEVLNLAQSKNFHLRPRDLISNINVIVLELKGSETTFMCEYADETATIVEFLNRWITFCQSIIESKYGPPCPPCPAPEAAGGPSVFLFPPKPKDTLMISRTPEVTCVVVDVSQEDPEVQFNWYVDGVEVHNAKTKPREEQFNSTYRVVSVLTVLHQDWLNGKEYKCKVSNKGLPSSIEKTISKAKGQPREPQVYTLPPCQEEMTKNQVSLWCLVKGFYPSDIAVEWESNGQPENNYKTTPPVLDSDGSFFLYSRLTVDKSRWQEGNVFSCSVMHEALHNHYTQKSLSLSLG
heavy: EIQLQQSGPELVKPGASVKVSCKASGYSFTDYNMYWVKQSHGESLEWIGYIDPYNGGTRYNQKFKGKATLTVDKSSSTAFMHLNSLTSEDSAVYYCARNGHWDGAWFAYWGQGTLVTVSAASTKGPSVFPLAPCSRSTSESTAALGCLVKDYFPEPVTVSWNSGALTSGVHTFPAVLQSSGLYSLSSVVTVPSSSLGTKTYTCNVDHKPSNTKVDKRVESKYGPPCPPCPAPEAAGGPSVFLFPPKPKDTLMISRTPEVTCVVVDVSQEDPEVQFNWYVDGVEVHNAKTKPREEQFNSTYRVVSVLTVLHQDWLNGKEYKCKVSNKGLPSSIEKTISKAKGQPREPQVCTLPPSQEEMTKNQVSLSCAVKGFYPSDIAVEWESNGQPENNYKTTPPVLDSDGSFFLVSRLTVDKSRWQEGNVFSCSVMHEALHNHYTQKSLSLSLG
light: DIQMNQSPSSLSASLGDTITITCHASQNINVWLSWYQQKPGNIPKLLIYKASNLHTGVPSRFSGSRSGTGFTLTISSLQPEDIATYYCHQGQSYPFTFGSGTKLEIKRTVAAPSVFIFPPSDEQLKSGTASVVCLLNNFYPREAKVQWKVDNALQSGNSQESVTEQDSKDSTYSLSSTLTLSKADYEKHKVYACEVTHQGLSSPVTKSFNRGEC
B2: W3XX115-T2U0.E44-46.uIgG4V322 (Fc fusion)
chain: B1 chain with G52E, F78G
heavy: B1 heavy
light: B1 light
B3: W3XX115-T2U0.E44-43.uIgG4V322 (Fc fusion)
chain: B1 chain with K32D, G52E
heavy: B1 heavy
light: B1 light
B4: W3XX115-T2U0.E44-45.uIgG4V322 (Fc fusion)
chain: B1 chain with G52E, K76R
heavy: B1 heavy
light: B1 light
B5: W3XX115-T2U0.E44-40.uIgG4V322 (Fc fusion)
chain: B1 chain with G52E, E110R
heavy: B1 heavy
light: B1 light
B6: W3XX115-T2U0.E44-47.uIgG4V322 (Fc fusion)
chain: B1 chain with G52E, P82Y
heavy: B1 heavy
light: B1 light
B7: W3XX115-T2U0.E44-6.uIgG4V322 (Fc fusion)
chain: B1 chain with G52E
heavy: B1 heavy
light: B1 light
B8: W3XX115-T2U10.Z73-56.uIgG4V322 (Fc fusion)
chain 1: APTSSSTKKTQLQLEHLLLDLQMILNGINNYDNPKLTRMLTIKFYMPKKATELKHLQCLEEELKPLEEVLNLAQSKNFHLRPRKLISNINVIVLELKGSETTFMCEYADETATIVEFLNRWITFCQSILESKYGPPCPPCPAPEAAGGPSVFLFPPKPKDTLMISRTPEVTCVVVDVSQEDPEVQFNWYVDGVEVHNAKTKPREEQFNSTYRVVSVLTVLHQDWLNGKEYKCKVSNKGLPSSIEKTISKAKGQPREPQVYTLPPCQEEMTKNQVSLWCLVKGFYPSDIAVEWESNGQPENNYKTTPPVLDSDGSFFLYSRLTVDKSRWQEGNVFSCSVMHEALHNHYTQKSLSLSLGK
chain 2: QVQLVESGGGVVQPGGSLRLSCAASDSIDSLVNMGWYRQAPGKQRELVALIATYITHYADFVKGRFTISRDNSKNTLYLQMNSLRAEDTAVYYCYARNIIVDYWGQGTLVTVSSGGGGSGGGGSGGGGSQVQLVESGGGVVQPGGSLRLSCAASDSIDSLVNMGWYRQAPGKQRELVALIATYITHYADFVKGRFTISRDNSKNTLYLQMNSLRAEDTAVYYCYARNIIVDYWGQGTLVTVSSESKYGPPCPPCPAPEAAGGPSVFLFPPKPKDTLMISRTPEVTCVVVDVSQEDPEVQFNWYVDGVEVHNAKTKPREEQFNSTYRVVSVLTVLHQDWLNGKEYKCKVSNKGLPSSIEKTISKAKGQPREPQVCTLPPSQEEMTKNQVSLSCAVKGFYPSDIAVEWESNGQPENNYKTTPPVLDSDGSFFLVSRLTVDKSRWQEGNVFSCSVMHEALHNHYTQKSLSLSLG
B9: W3XX115-T2U10.Z73-63.uIgG4V322 (Fc fusion)
chain 1: B8 chain 1 with K84D, E95R
chain 2: B8 chain 2
B10: W3XX115-T2U10.Z73-61.uIgG4V322 (Fc fusion)
chain 1: B8 chain 1 with K84D, I92D
chain 2: B8 chain 2
B11: W3XX115-T2U10.Z73-59.uIgG4V322 (Fc fusion)
chain 1: B8 chain 1 with K84D, V91E
chain 2: B8 chain 2
B12: W3XX115-T2U10.Z73-62.uIgG4V322 (Fc fusion)
chain 1: B8 chain 1 with K84D, L94D
chain 2: B8 chain 2
B13: W3XX115-T2U10.Z73-60.uIgG4V322 (Fc fusion)
chain 1: B8 chain 1 with K84D, I92R
chain 2: B8 chain 2
B14: W3XX115-T2U10.Z73-64.uIgG4V322 (Fc fusion)
chain 1: B8 chain 1 with K84D, N119R
chain 2: B8 chain 2
B15: W3XX115-T2U3.E44-15.uIgG4V322 (Fc fusion)
chain: B8 chain 1 with D32K, I42V, K84D, L129I
heavy: QVQLVQSGAEVKKPGSSVKVSCKASGFTFTTYYISWVRQAPGQGLEYLGYINMGSGGTNYNEKFKGRVTITADKSTSTAYMELSSLRSEDTAVYYCAIIGYFDYWGQGTMVTVSSASTKGPSVFPLAPCSRSTSESTAALGCLVKDYFPEPVTVSWNSGALTSGVHTFPAVLQSSGLYSLSSVVTVPSSSLGTKTYTCNVDHKPSNTKVDKRVESKYGPPCPPCPAPEAAGGPSVFLFPPKPKDTLMISRTPEVTCVVVDVSQEDPEVQFNWYVDGVEVHNAKTKPREEQFNSTYRVVSVLTVLHQDWLNGKEYKCKVSNKGLPSSIEKTISKAKGQPREPQVCTLPPSQEEMTKNQVSLSCAVKGFYPSDIAVEWESNGQPENNYKTTPPVLDSDGSFFLVSRLTVDKSRWQEGNVFSCSVMHEALHNHYTQKSLSLSLGK
light: DVVMTQSPLSLPVTLGQPASISCRSSQSLLDSDGGTYLYWFQQRPGQSPRRLIYLVSTLGSGVPDRFSGSGSGTDFTLKISRVEAEDVGVYYCMQLTHWPYTFGQGTKLEIKRTVAAPSVFIFPPSDEQLKSGTASVVCLLNNFYPREAKVQWKVDNALQSGNSQESVTEQDSKDSTYSLSSTLTLSKADYEKHKVYACEVTHQGLSSPVTKSFNRGEC
B16: W3XX115-T2U10.Z73-58.uIgG4V322 (Fc fusion)
chain 1: B8 chain 1 with K84D, N88K
chain 2: B8 chain 2

What was measured:
Assay in all cases: cell-based or functional assay
[1] = biological target: T1, IL-2Rβ/γc complex (intermediate …)
[2] = biological target: T1, IL-2Rβ/γc complex (intermediate …); remark: listed apart in the source
[3] = biological target: T1, IL-2Rβ/γc complex (intermediate …); remark: listed apart in the source
[4] = biological target: T2, IL-2Rα/β/γc complex (high affinity …)
[5] = biological target: PD-1 (on CHO-PD1 engineered cell line; on activated CD8+ T cells) (UniProt Q15116 25-288, limits assumed)

Binder	Potency reduction, pSTAT5, human primary CD8+ T [1]	pSTAT5 EC50, human primary CD8+ T [1]	Potency reduction, pSTAT5, human activated CD8+ T [2]	other results
B1	11.3 fold	86.2 nM		
B2	7.6 fold	58.4 nM		
B3	17.6 fold	135 nM		
B4	31.4 fold	240 nM		
B5	36.9 fold	282 nM		
B6	27.6 fold	211 nM		
B7	18.3 fold	145 nM		
B8			2.5 fold	
B9			2.5 fold	
B10			14.2 fold	
B11			18.9 fold	
B12			6.5 fold	
B13			10 fold	
B14			58.7 fold	
B15				Potency reduction, pSTAT5, human primary CD8+ T [3]: 132 fold; pSTAT5 EC50, human primary CD8+ T [3]: 1870 nM; Potency reduction, pSTAT5, human activated CD8+ T (CD25 positive and PD-1 positive) [4]: 139 fold; pSTAT5 EC50, human activated CD8+ T (CD25 positive and PD-1 positive) [4]: 3.78 nM; PD-1+/PD-1- ratio (pSTAT5 potency, activated versus primary CD8+ T) [5]: 496 fold
B16			26.1 fold	
